T1: AGL15-GST (Arabidopsis thaliana, UniProt Q38847 1-268)
T1 sequence: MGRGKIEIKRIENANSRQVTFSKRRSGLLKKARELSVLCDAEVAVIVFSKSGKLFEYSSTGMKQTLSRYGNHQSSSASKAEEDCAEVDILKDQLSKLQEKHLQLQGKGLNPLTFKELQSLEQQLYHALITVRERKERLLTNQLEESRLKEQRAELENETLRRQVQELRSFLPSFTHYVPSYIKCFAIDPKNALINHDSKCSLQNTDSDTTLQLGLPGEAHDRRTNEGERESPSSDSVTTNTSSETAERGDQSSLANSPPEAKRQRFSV

T2: AGL15-His (Arabidopsis thaliana, UniProt Q38847 1-268)
T2 sequence (looked up): T1 sequence

B1: miR156c CArG II (dsDNA)
DNA 1: TGAATTAATTCTTAAAATTGTGAAATAATT
DNA 2: AATTATTTCACAATTTTAAGAATTAATTCA
B2: miR156c CArG I (dsDNA)
DNA 1: AAAAAAATTGCTATTTTTTGAAAATGTTAC
DNA 2: GTAACATTTTCAAAAAATAGCAATTTTTTT
B3: miR156a CArG III (dsDNA)
DNA 1: ATAATAATAATCTAATTAAAGGAGATGAGA
DNA 2: TCTCATCTCCTTTAATTAGATTATTATTAT
B4: miR156a CArG II (dsDNA)
DNA 1: ATATATCTTCCATAATTTTGCAAGTCTTTA
DNA 2: TAAAGACTTGCAAAATTATGGAAGATATAT
B5: miR156a CArG I (dsDNA)
DNA 1: TGGTGAAAAACAATTAATAGAAAATTAATT
DNA 2: AATTAATTTTCTATTAATTGTTTTTCACCA
B6: miR156c NC (dsDNA)
DNA 1: TTCAGACATCTGTCCCATTGCATGTAAGAG
DNA 2: CTCTTACATGCAATGGGACAGATGTCTGAA
B7: miR156a NC (dsDNA)
DNA 1: TAAGAGAGATAAAGAAAGCGACAAGAGCCA
DNA 2: TGGCTCTTGTCGCTTTCTTTATCTCTCTTA
B8: GST-AGL18 (natural protein, Arabidopsis thaliana, UniProt Q9M2K8 1-256, looked up)
chain: MGRGRIEIKKIENINSRQVTFSKRRNGLIKKAKELSILCDAEVALIIFSSTGKIYDFSSVCMEQILSRYGYTTASTEHKQQREHQLLICASHGNEAVLRNDDSMKGELERLQLAIERLKGKELEGMSFPDLISLENQLNESLHSVKDQKTQILLNQIERSRIQEKKALEENQILRKQVEMLGRGSGPKVLNERPQDSSPEADPESSSSEEDENDNEEHHSDTSLQLGLSSTGYCTKRKKPKIELVCDNSGSQVASD
B9: miR156a CArG IV (dsDNA)
DNA 1: CAAGTTCATTGCCATTTTTAGGTCTCTCTA
DNA 2: TAGAGAGACCTAAAAATGGCAATGAACTTG
B10: miR156c CArG III (dsDNA)
DNA 1: TTGTCGTTGCCGTTTATAGGTTATGAGATT
DNA 2: AATCTCATAACCTATAAACGGCAACGACAA
B11: miR156a CArG V (dsDNA)
DNA 1: CTTTTTTTTGCTTTTTATGGTTATGTTTTT
DNA 2: AAAAACATAACCATAAAAAGCAAAAAAAAG

The first data set addresses T1, AGL15-GST. Description: EMSA. Background: In EMSA bound probe runs differently from free probe, usually more slowly.
Consider B1, for which the binding result was “no binding”. Regarding B2, the binding result is listed as “no binding”.

As for B3, the binding result is on record as “no binding”. On the same count and under the same terms, the value for B4 was “no binding”; that for B5 was “no binding”. The same measure, in the same setting: the value for B6 was “no binding”. Take B7: the binding result is “no binding”.

A further data set deals with T2, AGL15-His. Description: pull-down.
Take B8: the binding result is listed as “binds”.

The target in a further data set is T1, AGL15-GST. Description: competition.
As for B9, the binding result was “binds”. On the same count and under the same terms, the value for B10 was “binds”; that for B11 was “binds”.
